Literature values as cited in article PMC3008546.
pKd: −log10 of the molar value.

Target: DNA ligase IV BRCT (Homo sapiens) (UniProt P49917)
Sequence (P49917 654-911): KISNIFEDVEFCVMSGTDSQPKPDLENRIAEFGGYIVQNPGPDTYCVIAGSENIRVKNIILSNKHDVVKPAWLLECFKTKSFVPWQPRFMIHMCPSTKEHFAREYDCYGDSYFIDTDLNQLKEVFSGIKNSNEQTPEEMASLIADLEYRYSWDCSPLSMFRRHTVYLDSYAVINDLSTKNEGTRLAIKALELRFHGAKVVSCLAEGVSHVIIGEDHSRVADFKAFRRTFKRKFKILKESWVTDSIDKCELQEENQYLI

Sequence of XRCC4 (Q13426 266-336): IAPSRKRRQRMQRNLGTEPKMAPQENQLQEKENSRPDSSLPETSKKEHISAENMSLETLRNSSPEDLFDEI

pKd: 9.00
Substance: XRCC4 (from UniProt Q13426)
